# Measured values published in the RNAGym collection of RNA variant scans (doi:10.7554/elife.90254).
# B1: LINE1-full (parent)
# chain: UACGUAGGUGGUUUUCCCCUGAUAGUGCUAAGGGGGCCUGGAAGUUUGGACUGGGCAGAGCUCAACACAGCGUGGCAAAGUGGCUGUGGCUAGACUGCCUCUCUGGAUUCCUCGUCACUCAGCAGGGCAUCUCUGAGAGAAAUGCC
# Variants of: B1
# Experiment: self-cleavage, relative activity (ratio to wild type); higher = more cleavage; in vitro, sequencing; the parent is a self-cleaving ribozyme
row,Variant,self-cleavage
1,U9A A142G,1.13
2,A77G G137A,2.66
3,G21U A94U,0.39
4,C101A A141G,1.64
5,A6G G11C,0.31
6,U104C C113A,2.01
7,G4A G127A,1.67
8,U1C C116A,1.42
9,C61U A77G,0.06
10,A50G C56U,0.06
11,A50G G53C,0.13
12,U39G A121G,1.23
13,U46A C113U,1.16
14,A65U A124G,0.09
15,U14C G74A,0.96
16,G70U U81C,0.3
17,A57U A141G,0.11
18,G21A U73C,1.41
19,U12G U85C,0.4
20,A65C A79G,0
21,G48A C131G,0.17
22,A22U A65U,0.18
23,G70A A142G,0.11
24,A64C A140G,0.24

row,Variant,self-cleavage
1,C3A U96C,0.2
2,G58U A124G,0.01
3,U39C C110G,0.51
4,U46C A57C,0.31
5,G114A A141G,0.89
6,C38U U52A,1.25
7,A31G U119C,1.94
8,U29A A142C,0.56
9,C3U A140G,0.97
10,U47C A140U,0.6
11,U14A A30G,1.27
12,U1C A43U,0.75
13,C28U A92G,0.11
14,U13C C98G,0.15
15,U87C A140G,0.13
16,U14A U26A,0.79
17,U20G U47A,0.51
18,U108C A138G,1.8
19,U13A C118U,0.52
20,U85G A142G,0.1
21,U26G A79G,0.53
22,G54A C84U,0.08
23,C51U U100C,1.68
24,U1C U45G,0.48

row,Variant,self-cleavage
1,G32A A121U,1.45
2,U12A G32A,1.08
3,G32U U115A,1.04
4,U12C A59U,0.13
5,U62C A69G,0.06
6,U62C U132C,0.06
7,U96C U100C,0.38
8,C63A A142U,0.05
9,A2G U45A,0.63
10,U85G U104C,0
11,U14A U96C,0.04
12,G54A A92G,0.04
13,C19U U52A,1.28
14,U1C U26G,0.72
15,A69G G88C,0.06
16,G35C U91C,0.81
17,A43G C120U,1.52
18,U23A A94G,0.47
19,G8C U39C,0.91
20,C111A,1.25
21,G4A U112C,1.31
22,A57C A138G,0.22
23,U39A C98U,0.45
24,U9C U102C,1.3

row,Variant,self-cleavage
1,U130C A136U,1.63
2,C56G A92U,0.04
3,C61G A124U,0.11
4,A22U G93A,0.07
5,A67G A79U,0.73
6,C131A A140G,1.94
7,U15A A142G,1.13
8,G7U U112C,1.15
9,U9C G125A,1.8
10,U1C U100A,0.69
11,U96C U132A,0.11
12,G7A A124C,1.37
13,A6U U132C,1.33
14,G33A U62C,0.05
15,U85C C98U,0.01
16,C101A A129U,2.2
17,U15A U102C,1.15
18,U23C U112C,1.57
19,U81A A117G,2.29
20,U20C G32U,0.94
21,U26A U119A,0.78
22,U39C C133U,1.31
23,G58U A64U,0.05
24,A64G G105U,0.15

row,Variant,self-cleavage
1,A117U U143C,1.43
2,G97A A121G,0.05
3,G40U A43G,1.11
4,U47A A77G,2.01
5,U39A U119C,1.44
6,G8U A50G,1.19
7,A2C A57U,0.11
8,A31G U96C,0.16
9,U45C A141U,1.79
10,A59G U85C,0.09
11,A121G A138G,1.86
12,C28G U134C,0.82
13,G106A,1.48
14,U13C G126U,1.2
15,A140G A141U,0.82
16,U9A G72A,0.81
17,U46C C111U,1.24
18,A43G A77G,2.07
19,A30G U62A,0.04
20,A129U G144A,1.51
21,U45A A59G,0.05
22,U5A A42G,1.15
23,G75A A129U,1.13
24,U45C U112G,1.31

row,Variant,self-cleavage
1,A64G A77G,0.42
2,C38U U119C,1.47
3,A69G U115G,0.57
4,U15C U102C,1.46
5,C61U A94G,0.06
6,A2G U13A,0.99
7,U39A A43G,0.63
8,C103G,1.25
9,A69U U73G,0.31
10,G36C C71G,0.15
11,U62C C63U,0.07
12,A24U U104C,1.25
13,U9C U87G,0.69
14,A79G G139U,1.19
15,C76U U102C,0.59
16,U20C G49A,1.54
17,U5C U96C,0.26
18,A2G U47C,0.84
19,U26C U104A,1.13
20,U62C C103U,0.03
21,G97C,0.19
22,U15C U108C,1.99
23,A121G A142G,1.48
24,U96C U130C,0.24

row,Variant,self-cleavage
1,G83A U143C,0.71
2,A24C G139A,1.45
3,U112C A141G,1.57
4,A78C A124G,0.94
5,U29A G54A,0.75
6,G8A A65G,0
7,A141G A142C,0.39
8,U9A U143G,1.98
9,G40A G60U,0.02
10,A30C U87C,0.64
11,A67C U73C,0.22
12,U109G C128U,1.17
13,A121U U134C,1.35
14,U52A U130G,1.24
15,A92G A138G,0.08
16,U12C G35A,1.62
17,A77G A121U,2.74
18,G8A U119A,2.47
19,U14C C68U,0.32
20,U81G A92G,0.24
21,U46A U47A,1.09
22,A30G A59G,0.11
23,U87G U115C,0.03
